Each block holds one molecule with its values, some of them ahead of it.
How the values were obtained:
[1] = target: 3xFlag-LRRK1 K650A GTP deficient binding mutant, full-length (human) (UniProt Q38SD2); test: immunogold labelling + negative-stain transmission electron microscopy; purified 3xFlag proteins diluted to 5 ng/ul in 20 mM Tris-HCl pH 7.5, 150 mM NaCl, 0.02% Tween 20 or Triton X-100; uranyl acetate stain; anti-Flag M2 primary and 5 nm gold secondary antibody; distances between gold particles and particle diameters measured
[2] = target: 3xFlag-LRRK1 wild-type (leucine-rich repeat kinase 1), full-length (human) (UniProt Q38SD2); test: as above
[3] = target: 3xFlag-LRRK2 G2019S pathogenic mutant, full-length (human) (UniProt Q5S007); test: as above; settings: remark: other sources report otherwise
[4] = target: 3xFlag-LRRK2 K1906M kinase dead mutant, full-length (human) (UniProt Q5S007); test: as above
[5] = target: 3xFlag-LRRK2 T1348N GTP deficient binding mutant, full-length (human) (UniProt Q5S007); test: as above
[6] = target: T1, 3xFlag-LRRK1 (Homo sapiens, UniProt Q38SD2); test: pulldown from cell lysate on ATP-agarose, competed by free ATP; format: binding; settings: ATP-depleted lysate, pH 7.4, 5 mM MgCl2, 4°C; competed by 1 mM ATP, not GTP; kinase domain site
T1 construct: homodimer

[7] = target: T2, 3xFlag-LRRK2 (Homo sapiens, UniProt Q5S007); test: as above; format: binding; settings: ATP-depleted lysate, pH 7.4, 5 mM MgCl2, 4°C; competed by 1 mM ATP, not GTP; kinase domain site
T2 construct: homodimer

[8] = target: the molecule itself; test: immunogold labelling + negative-stain transmission electron microscopy; purified 3xFlag proteins diluted to 5 ng/ul in 20 mM Tris-HCl pH 7.5, 150 mM NaCl, 0.02% Tween 20 or Triton X-100; uranyl acetate stain; anti-Flag M2 primary and 5 nm gold secondary antibody; distances between gold particles and particle diameters measured

T2 sequence (Q5S007 whole entry, the tested form may be a part): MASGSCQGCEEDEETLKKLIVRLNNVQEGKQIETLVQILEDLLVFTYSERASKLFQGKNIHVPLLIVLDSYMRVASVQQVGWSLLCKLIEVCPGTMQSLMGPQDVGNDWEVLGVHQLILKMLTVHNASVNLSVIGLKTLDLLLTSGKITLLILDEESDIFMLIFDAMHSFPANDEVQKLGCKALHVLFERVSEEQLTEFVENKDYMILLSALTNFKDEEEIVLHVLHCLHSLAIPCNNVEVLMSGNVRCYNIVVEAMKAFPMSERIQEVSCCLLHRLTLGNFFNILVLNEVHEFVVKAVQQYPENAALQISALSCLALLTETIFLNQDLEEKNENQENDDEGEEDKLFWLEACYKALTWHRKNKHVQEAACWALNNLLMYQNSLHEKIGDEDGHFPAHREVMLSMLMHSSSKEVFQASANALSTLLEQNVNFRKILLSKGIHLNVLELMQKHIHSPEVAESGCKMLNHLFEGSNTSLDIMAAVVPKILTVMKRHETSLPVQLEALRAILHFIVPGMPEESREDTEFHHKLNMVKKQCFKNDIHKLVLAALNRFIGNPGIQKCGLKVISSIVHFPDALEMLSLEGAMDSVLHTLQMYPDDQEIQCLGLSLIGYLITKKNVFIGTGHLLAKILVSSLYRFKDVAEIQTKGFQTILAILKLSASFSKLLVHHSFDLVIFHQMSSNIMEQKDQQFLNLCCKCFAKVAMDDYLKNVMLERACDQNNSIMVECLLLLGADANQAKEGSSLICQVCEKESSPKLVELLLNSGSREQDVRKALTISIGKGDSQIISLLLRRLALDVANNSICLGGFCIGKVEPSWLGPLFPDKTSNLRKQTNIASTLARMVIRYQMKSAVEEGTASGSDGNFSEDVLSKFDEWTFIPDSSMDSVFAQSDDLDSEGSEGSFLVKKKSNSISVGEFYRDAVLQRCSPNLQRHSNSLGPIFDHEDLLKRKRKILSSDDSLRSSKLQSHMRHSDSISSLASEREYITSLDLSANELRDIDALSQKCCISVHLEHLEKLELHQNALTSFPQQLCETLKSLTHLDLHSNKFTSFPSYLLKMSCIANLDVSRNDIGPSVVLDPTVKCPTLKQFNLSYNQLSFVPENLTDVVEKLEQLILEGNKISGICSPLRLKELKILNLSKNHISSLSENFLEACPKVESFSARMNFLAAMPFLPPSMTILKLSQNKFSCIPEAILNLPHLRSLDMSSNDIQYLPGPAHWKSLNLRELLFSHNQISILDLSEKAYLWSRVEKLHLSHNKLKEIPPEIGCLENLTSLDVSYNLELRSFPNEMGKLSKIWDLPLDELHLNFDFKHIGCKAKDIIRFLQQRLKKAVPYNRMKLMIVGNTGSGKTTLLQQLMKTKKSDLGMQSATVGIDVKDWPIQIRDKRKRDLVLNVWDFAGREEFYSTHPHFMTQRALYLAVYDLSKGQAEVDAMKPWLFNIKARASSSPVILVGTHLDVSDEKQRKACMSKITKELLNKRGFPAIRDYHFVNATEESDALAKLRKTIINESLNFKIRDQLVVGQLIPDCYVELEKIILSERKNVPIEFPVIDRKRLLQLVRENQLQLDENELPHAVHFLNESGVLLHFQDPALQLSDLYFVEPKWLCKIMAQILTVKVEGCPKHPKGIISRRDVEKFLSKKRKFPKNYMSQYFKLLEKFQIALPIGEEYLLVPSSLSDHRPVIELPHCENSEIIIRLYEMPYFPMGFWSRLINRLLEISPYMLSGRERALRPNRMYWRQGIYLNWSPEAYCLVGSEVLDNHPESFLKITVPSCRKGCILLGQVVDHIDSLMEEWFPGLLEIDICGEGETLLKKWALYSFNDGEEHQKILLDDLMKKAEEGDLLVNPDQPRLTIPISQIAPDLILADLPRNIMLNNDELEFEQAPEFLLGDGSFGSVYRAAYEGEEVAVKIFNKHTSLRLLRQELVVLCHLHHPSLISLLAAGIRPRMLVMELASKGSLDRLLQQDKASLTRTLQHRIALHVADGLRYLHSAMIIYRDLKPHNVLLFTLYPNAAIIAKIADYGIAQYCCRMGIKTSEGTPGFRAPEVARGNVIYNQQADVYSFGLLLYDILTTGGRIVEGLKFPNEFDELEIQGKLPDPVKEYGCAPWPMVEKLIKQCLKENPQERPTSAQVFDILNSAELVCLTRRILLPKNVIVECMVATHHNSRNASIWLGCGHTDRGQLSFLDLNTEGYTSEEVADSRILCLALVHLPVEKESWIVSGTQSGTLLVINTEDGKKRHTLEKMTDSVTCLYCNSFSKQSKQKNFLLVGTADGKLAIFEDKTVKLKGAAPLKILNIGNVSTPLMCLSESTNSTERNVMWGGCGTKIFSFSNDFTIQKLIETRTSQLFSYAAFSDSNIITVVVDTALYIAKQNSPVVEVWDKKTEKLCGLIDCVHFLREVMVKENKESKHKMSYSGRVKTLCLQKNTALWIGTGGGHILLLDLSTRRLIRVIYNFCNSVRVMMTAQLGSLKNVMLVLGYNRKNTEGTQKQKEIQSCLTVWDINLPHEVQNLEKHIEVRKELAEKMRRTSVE
T1 sequence (Q38SD2 28-2015): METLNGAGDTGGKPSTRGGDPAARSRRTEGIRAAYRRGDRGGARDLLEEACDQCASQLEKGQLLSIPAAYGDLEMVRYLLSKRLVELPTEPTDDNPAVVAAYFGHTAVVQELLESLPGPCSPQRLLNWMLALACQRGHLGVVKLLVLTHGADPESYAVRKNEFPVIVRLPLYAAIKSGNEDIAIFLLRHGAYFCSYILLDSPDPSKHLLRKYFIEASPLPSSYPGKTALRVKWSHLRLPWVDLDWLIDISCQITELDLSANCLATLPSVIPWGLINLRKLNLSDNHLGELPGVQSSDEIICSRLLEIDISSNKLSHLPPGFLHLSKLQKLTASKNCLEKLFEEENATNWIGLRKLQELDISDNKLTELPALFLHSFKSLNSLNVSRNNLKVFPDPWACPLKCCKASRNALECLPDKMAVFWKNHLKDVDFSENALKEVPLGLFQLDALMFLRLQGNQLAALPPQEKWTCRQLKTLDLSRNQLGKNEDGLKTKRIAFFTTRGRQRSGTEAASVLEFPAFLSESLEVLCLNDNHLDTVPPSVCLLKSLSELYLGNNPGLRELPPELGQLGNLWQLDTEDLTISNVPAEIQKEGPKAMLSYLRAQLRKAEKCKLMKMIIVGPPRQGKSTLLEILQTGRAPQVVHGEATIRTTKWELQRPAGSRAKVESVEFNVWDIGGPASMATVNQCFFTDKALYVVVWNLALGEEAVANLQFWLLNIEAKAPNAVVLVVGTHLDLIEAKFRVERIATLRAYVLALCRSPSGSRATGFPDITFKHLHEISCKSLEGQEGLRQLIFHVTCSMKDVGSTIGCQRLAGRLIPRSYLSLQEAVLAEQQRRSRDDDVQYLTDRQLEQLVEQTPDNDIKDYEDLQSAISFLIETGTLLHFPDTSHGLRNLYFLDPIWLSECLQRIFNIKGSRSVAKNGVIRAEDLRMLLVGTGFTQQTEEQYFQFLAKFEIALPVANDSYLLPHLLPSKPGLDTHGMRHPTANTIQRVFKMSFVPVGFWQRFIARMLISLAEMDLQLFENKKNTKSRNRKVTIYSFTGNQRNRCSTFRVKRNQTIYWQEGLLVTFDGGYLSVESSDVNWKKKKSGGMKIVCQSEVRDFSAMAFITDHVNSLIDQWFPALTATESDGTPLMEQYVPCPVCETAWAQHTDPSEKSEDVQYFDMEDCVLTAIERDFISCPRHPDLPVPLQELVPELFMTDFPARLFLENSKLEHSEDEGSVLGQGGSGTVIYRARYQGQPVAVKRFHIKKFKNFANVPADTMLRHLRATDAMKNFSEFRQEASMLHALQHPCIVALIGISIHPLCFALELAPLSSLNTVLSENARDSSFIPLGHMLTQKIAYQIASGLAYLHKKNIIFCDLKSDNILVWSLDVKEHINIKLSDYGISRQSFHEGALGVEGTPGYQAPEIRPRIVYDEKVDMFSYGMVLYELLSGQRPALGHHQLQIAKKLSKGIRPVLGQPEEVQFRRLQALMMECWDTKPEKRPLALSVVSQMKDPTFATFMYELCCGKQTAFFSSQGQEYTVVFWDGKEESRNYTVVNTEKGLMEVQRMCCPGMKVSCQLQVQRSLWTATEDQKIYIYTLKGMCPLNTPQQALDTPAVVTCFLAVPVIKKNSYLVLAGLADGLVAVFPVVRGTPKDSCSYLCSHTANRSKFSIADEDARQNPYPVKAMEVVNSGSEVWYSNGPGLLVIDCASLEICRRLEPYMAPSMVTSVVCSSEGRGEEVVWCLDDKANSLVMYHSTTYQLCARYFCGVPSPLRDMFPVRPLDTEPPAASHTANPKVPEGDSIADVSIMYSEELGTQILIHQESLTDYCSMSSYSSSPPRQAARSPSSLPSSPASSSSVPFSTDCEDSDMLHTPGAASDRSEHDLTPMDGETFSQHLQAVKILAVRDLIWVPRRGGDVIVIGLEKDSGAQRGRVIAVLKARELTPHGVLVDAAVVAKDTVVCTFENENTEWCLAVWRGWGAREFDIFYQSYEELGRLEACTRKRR

Molecule: 3xFlag-LRRK1 wild-type (leucine-rich repeat kinase 1), full-length (from UniProt Q38SD2 1-2015) (enzyme)
- stoichiometry N [2]: 2

Molecule: Nc1ncnc2c1ncn2[C@@H]1O[C@H](COP(=O)(O)OP(=O)(O)OP(=O)(O)O)[C@@H](O)[C@H]1O [ATP]
- pulldown from cell lysate on ATP-agarose, competed by free ATP [6]: we confirm binding of both proteins to ATP using different ATP agarose beads
- pulldown from cell lysate on ATP-agarose, competed by free ATP [7]: we confirm binding of both proteins to ATP using different ATP agarose beads

B1: 3xFlag-LRRK1 kinase dead mutant (K1269M; printed K1269W in the dimer experiment), full-length (enzyme)
chain: METLNGAGDTGGKPSTRGGDPAARSRRTEGIRAAYRRGDRGGARDLLEEACDQCASQLEKGQLLSIPAAYGDLEMVRYLLSKRLVELPTEPTDDNPAVVAAYFGHTAVVQELLESLPGPCSPQRLLNWMLALACQRGHLGVVKLLVLTHGADPESYAVRKNEFPVIVRLPLYAAIKSGNEDIAIFLLRHGAYFCSYILLDSPDPSKHLLRKYFIEASPLPSSYPGKTALRVKWSHLRLPWVDLDWLIDISCQITELDLSANCLATLPSVIPWGLINLRKLNLSDNHLGELPGVQSSDEIICSRLLEIDISSNKLSHLPPGFLHLSKLQKLTASKNCLEKLFEEENATNWIGLRKLQELDISDNKLTELPALFLHSFKSLNSLNVSRNNLKVFPDPWACPLKCCKASRNALECLPDKMAVFWKNHLKDVDFSENALKEVPLGLFQLDALMFLRLQGNQLAALPPQEKWTCRQLKTLDLSRNQLGKNEDGLKTKRIAFFTTRGRQRSGTEAASVLEFPAFLSESLEVLCLNDNHLDTVPPSVCLLKSLSELYLGNNPGLRELPPELGQLGNLWQLDTEDLTISNVPAEIQKEGPKAMLSYLRAQLRKAEKCKLMKMIIVGPPRQGKSTLLEILQTGRAPQVVHGEATIRTTKWELQRPAGSRAKVESVEFNVWDIGGPASMATVNQCFFTDKALYVVVWNLALGEEAVANLQFWLLNIEAKAPNAVVLVVGTHLDLIEAKFRVERIATLRAYVLALCRSPSGSRATGFPDITFKHLHEISCKSLEGQEGLRQLIFHVTCSMKDVGSTIGCQRLAGRLIPRSYLSLQEAVLAEQQRRSRDDDVQYLTDRQLEQLVEQTPDNDIKDYEDLQSAISFLIETGTLLHFPDTSHGLRNLYFLDPIWLSECLQRIFNIKGSRSVAKNGVIRAEDLRMLLVGTGFTQQTEEQYFQFLAKFEIALPVANDSYLLPHLLPSKPGLDTHGMRHPTANTIQRVFKMSFVPVGFWQRFIARMLISLAEMDLQLFENKKNTKSRNRKVTIYSFTGNQRNRCSTFRVKRNQTIYWQEGLLVTFDGGYLSVESSDVNWKKKKSGGMKIVCQSEVRDFSAMAFITDHVNSLIDQWFPALTATESDGTPLMEQYVPCPVCETAWAQHTDPSEKSEDVQYFDMEDCVLTAIERDFISCPRHPDLPVPLQELVPELFMTDFPARLFLENSKLEHSEDEGSVLGQGGSGTVIYRARYQGQPVAVWRFHIKKFKNFANVPADTMLRHLRATDAMKNFSEFRQEASMLHALQHPCIVALIGISIHPLCFALELAPLSSLNTVLSENARDSSFIPLGHMLTQKIAYQIASGLAYLHKKNIIFCDLKSDNILVWSLDVKEHINIKLSDYGISRQSFHEGALGVEGTPGYQAPEIRPRIVYDEKVDMFSYGMVLYELLSGQRPALGHHQLQIAKKLSKGIRPVLGQPEEVQFRRLQALMMECWDTKPEKRPLALSVVSQMKDPTFATFMYELCCGKQTAFFSSQGQEYTVVFWDGKEESRNYTVVNTEKGLMEVQRMCCPGMKVSCQLQVQRSLWTATEDQKIYIYTLKGMCPLNTPQQALDTPAVVTCFLAVPVIKKNSYLVLAGLADGLVAVFPVVRGTPKDSCSYLCSHTANRSKFSIADEDARQNPYPVKAMEVVNSGSEVWYSNGPGLLVIDCASLEICRRLEPYMAPSMVTSVVCSSEGRGEEVVWCLDDKANSLVMYHSTTYQLCARYFCGVPSPLRDMFPVRPLDTEPPAASHTANPKVPEGDSIADVSIMYSEELGTQILIHQESLTDYCSMSSYSSSPPRQAARSPSSLPSSPASSSSVPFSTDCEDSDMLHTPGAASDRSEHDLTPMDGETFSQHLQAVKILAVRDLIWVPRRGGDVIVIGLEKDSGAQRGRVIAVLKARELTPHGVLVDAAVVAKDTVVCTFENENTEWCLAVWRGWGAREFDIFYQSYEELGRLEACTRKRR
- stoichiometry N [8]: 2

Further lines, results first:

- stoichiometry N [1]: 2
Molecule: 3xFlag-LRRK1 K650A GTP deficient binding mutant, full-length (from UniProt Q38SD2 1-2015) (enzyme)

- stoichiometry N [3]: 2
Molecule: 3xFlag-LRRK2 G2019S pathogenic mutant, full-length, Q5S007 1-2527

- stoichiometry N [4]: 2
Molecule: 3xFlag-LRRK2 K1906M kinase dead mutant, full-length, Q5S007 1-2527

- stoichiometry N [5]: 2
Molecule: 3xFlag-LRRK2 T1348N GTP deficient binding mutant, full-length, Q5S007 1-2527

Source: PMC3430690 (PLoS ONE, 2012)
